Experimental data published in US10196657B2, “Methods of producing 7-carbon chemicals via methyl-ester shielded carbon chain elongation” (INVISTA North America S.á r.l., priority 2012, dated 2019).

What was measured:
[1] = Haywood et al. 1988; Slater et al. 1998; cited from earlier work
[2] = Carboxylate reductase activity assay, N7-acetyl-7-aminoheptanoate to N7-acetyl-7-aminoheptanal; assay type: biochemical; conditions: purified enzyme enhanced by sfp gene product, 2 mM substrate, room temperature, 20 min; against empty vector control; FIG. 12
Method: The activity of each of the N-terminal His-tagged carboxylate reductases of SEQ ID NOs: 3, 6, and 7 (see Examples 4, and FIGS. 7B, 7E, and 7F) for converting N7-acetyl-7-aminoheptanoate to N7-acetyl-7-aminoheptanal was assayed in triplicate in a buffer composed of a final concentration of 50 mM HEPES buffer (pH=7.5), 2 mM N7-acetyl-7-aminoheptanoate, 10 mM MgCl2, 1 mM ATP, and 1 mM NADPH. The assays were initiated by adding purified carboxylate reductase and phosphopantetheine transferase or the empty vector control to the assay buffer containing the N7-acetyl-7-aminoheptanoate then incubated at room temperature for 20 min. The consumption of NADPH was monitored by absorbance at 340 nm.

[3] = Carboxylate reductase activity assay, pimelate to pimelate semialdehyde (NADPH consumption); assay type: biochemical; conditions: purified enzyme enhanced by sfp gene product, 2 mM pimelate, room temperature, 20 min; against empty vector control; FIG. 10
Method: A sequence encoding a HIS-tag was added to the genes from Segniliparus rugosus and Segniliparus rotundus that encode the carboxylate reductases of SEQ ID NOs: 4 and 7, respectively (see FIGS. 7C and 7F), such that N-terminal HIS tagged carboxylate reductases could be produced. Each of the modified genes was cloned into a pET Duet expression vector along with a sfp gene encoding a HIS-tagged phosphopantetheine transferase from Bacillus subtilis, both under the T7 promoter. Each expression vector was transformed into a BL21[DE3] E. coli host and the resulting recombinant E. coli strains were cultivated at 37° C. in a 250 mL shake flask culture containing 50 mL LB media and antibiotic selection pressure, with shaking at 230 rpm. Each culture was induced overnight at 37° C. using an auto-induction media.
The pellet from each induced shake flask culture was harvested via centrifugation. Each pellet was resuspended and lysed via sonication, and the cell debris was separated from the supernatant via centrifugation. […]
Enzyme activity assays (i.e., from pimelate to pimelate semialdehyde) were performed in triplicate in a buffer composed of a final concentration of 50 mM HEPES buffer (pH=7.5), 2 mM pimelate, 10 mM MgCl2, 1 mM ATP and 1 mM NADPH. […] The consumption of NADPH was monitored by absorbance at 340 nm.

Molecule | acceptance of N7-acetyl-7-aminoheptanoate as substrate (NADPH consumption, absorbance at 340 nm) [2] | further results
β-ketothiolase encoded by bktB from Cupriavidus necator: β-ketothiolase classified under EC 2.3.1.16, gene product of bktB (protein, UniProt Q0KBP1 1-394, looked up) Beta-ketothiolase BktB: MTREVVVVSGVRTAIGTFGGSLKDVAPAELGALVVREALARAQVSGDDVGHVVFGNVIQTEPRDMYLGRVAAVNGGVTINAPALTVNRLCGSGLQAIVSAAQTILLGDTDVAIGGGAESMSRAPYLAPAARWGARMGDAGLVDMMLGALHDPFHRIHMGVTAENVAKEYDISRAQQDEAALESHRRASAAIKAGYFKDQIVPVVSKGRKGDVTFDTDEHVRHDATIDDMTKLRPVFVKENGTVTAGNASGLNDAAAAVVMMERAEAERRGLKPLARLVSYGHAGVDPKAMGIGPVPATKIALERAGLQVSDLDVIEANEAFAAQACAVTKALGLDPAKVNPNGSGISLGHPIGATGALITVKALHELNRVQGRYALVTMCIGGGQGIAAIFERI | – | substrates accepted, forming the CoA-activated C7 aliphatic backbone [1]: accepts propanoyl-CoA and pentanoyl-CoA as substrates
SEQ ID NO 3: Mycobacterium smegmatis carboxylate reductase, Genbank Accession No. ABK71854.1 (protein, listed as Mycobacterium smegmatis) MTSDVHDATDGVTETALDDEQSTRRIAELYATDPEFAAAAPLPAVVDAAHKPGLRLAEILQTLFTGYGDRPALGYRARELATDEGGRTVTRLLPRFDTLTYAQVWSRVQAVAAALRHNFAQPIYPGDAVATIGFASPDYLTLDLVCAYLGLVSVPLQHNAPVSRLAPILAEVEPRILTVSAEYLDLAVESVRDVNSVSQLVVFDHHPEVDDHRDALARAREQLAGKGIAVTTLDAIADEGAGLPAEPIYTADHDQRLAMILYTSGSTGAPKGAMYTEAMVARLWTMSFITGDPTPVINVNFMPLNHLGGRIPISTAVQNGGTSYFVPESDMSTLFEDLALVRPTELGLVPRVADMLYQHHLATVDRLVTQGADELTAEKQAGAELREQVLGGRVITGFVSTAPLAAEMRAFLDITLGAHIVDGYGLTETGAVTRDGVIVRPPVIDYKLIDVPELGYFSTDKPYPRGELLVRSQTLTPGYYKRPEVTASVFDRDGYYHTGDVMAETAPDHLVYVDRRNNVLKLAQGEFVAVANLEAVFSGAALVRQIFVYGNSERSFLLAVVVPTPEALEQYDPAALKAALADSLQRTARDAELQSYEVPADFIVETEPFSAANGLLSGVGKLLRPNLKDRYGQRLEQMYADIAATQANQLRELRRAAATQPVIDTLTQAAATILGTGSEVASDAHFTDLGGDSLSALTLSNLLSDFFGFEVPVGTIVNPATNLAQLAQHIEAQRTAGDRRPSFTTVHGADATEIRASELTLDKFIDAETLRAAPGLPKVTTEPRTVLLSGANGWLGRFLTLQWLERLAPVGGTLITIVRGRDDAAARARLTQAYDTDPELSRRFAELADRHLRVVAGDIGDPNLGLTPEIWHRLAAEVDLVVHPAALVNHVLPYRQLFGPNVVGTAEVIKLALTERIKPVTYLSTVSVAMGIPDFEEDGDIRTVSPVRPLDGGYANGYGNSKWAGEVLLREAHDLCGLPVATFRSDMILAHPRYRGQVNVPDMFTRLLLSLLITGVAPRSFYIGDGERPRAHYPGLTVDFVAEAVTTLGAQQREGYVSYDVMNPHDDGISLDVFVDWLIRAGHPIDRVDDYDDWVRRFETALTALPEKRRAQTVLPLLHAFRAPQAPLRGAPEPTEVFHAAVRTAKVGPGDIPHLDEALIDKYIRDLREFGLI | accepted N7-acetyl-7-aminoheptanoate as substrate | –
SEQ ID NO 6: Mycobacterium massiliense carboxylate reductase, Genbank Accession No. EIV11143.1 (protein, Mycobacterium massiliense) MTNETNPQQEQLSRRIESLRESDPQFRAAQPDPAVAEQVLRPGLHLSEAIAALMTGYAERPALGERARELVIDQDGRTTLRLLPRFDTTTYGELWSRTTSVAAAWHHDATHPVKAGDLVATLGFTSIDYTVLDLAIMILGGVAVPLQTSAPASQWTTILAEAEPNTLAVSIELIGAAMESVRATPSIKQVVVFDYTPEVDDQREAFEAASTQLAGTGIALETLDAVIARGAALPAAPLYAPSAGDDPLALLIYTSGSTGAPKGAMHSENIVRRWWIREDVMAGTENLPMIGLNFMPMSHIMGRGTLTSTLSTGGTGYFAASSDMSTLFEDMELIRPTALALVPRVCDMVFQRFQTEVDRRLASGDTASAEAVAAEVKADIRDNLFGGRVSAVMVGSAPLSEELGEFIESCFELNLTDGYGSTEAGMVFRDGIVQRPPVIDYKLVDVPELGYFSTDKPHPRGELLLKTDGMFLGYYKRPEVTASVFDADGFYMTGDIVAELAHDNIEIIDRRNNVLKLSQGEFVAVATLEAEYANSPVVHQIYVYGSSERSYLLAVVVPTPEAVAAAKGDAAALKTTIADSLQDIAKEIQLQSYEVPRDFIIEPQPFTQGNGLLTGIAKLARPNLKAHYGPRLEQMYAEIAEQQAAELRALHGVDPDKPALETVLKAAQALLGVSSAELAADAHFTDLGGDSLSALSFSDLLRDIFAVEVPVGVIVSAANDLGGVAKFVDEQRHSGGTRPTAETVHGAGHTEIRAADLTLDKFIDEATLHAAPSLPKAAGIPHTVLLTGSNGYLGHYLALEWLERLDKTDGKLIVIVRGKNAEAAYGRLEEAFDTGDTELLAHFRSLADKHLEVLAGDIGDPNLGLDADTWQRLADTVDVIVHPAALVNHVLPYNQLFGPNVVGTAEIIKLAITTKIKPVTYLSTVAVAAYVDPTTFDEESDIRLISAVRPIDDGYANGYGNAKWAGEVLLREAHDLCGLPVAVFRSDMILAHSRYTGQLNVPDQFTRLILSLIATGIAPGSFYQAQTTGERPLAHYDGLPGDFTAEAITTLGTQVPEGSEGFVTYDCVNPHADGISLDNFVDWLIEAGYPIARIDNYTEWFTRFDTAIRGLSEKQKQHSLLPLLHAFEQPSAAENHGVVPAKRFQHAVQAAGIGPVGQDGTTDIPHLSRRLIVKYAKDLEQLGLL | accepted N7-acetyl-7-aminoheptanoate as substrate | –
SEQ ID NO 4: Segniliparus rugosus carboxylate reductase, Genbank Accession No. EFV11917.1 (protein, listed as Segniliparus rugosus) MGDGEERAKRFFQRIGELSATDPQFAAAAPDPAVVEAVSDPSLSFTRYLDTLMRGYAERPALAHRVGAGYETISYGELWARVGAIAAAWQADGLAPGDFVATVGFTSPDYVAVDLAAARSGLVSVPLQAGASLAQLVGILEETEPKVLAASASSLEGAVACALAAPSVQRLVVFDLRGPDASESAADERRGALADAEEQLARAGRAVVVETLADLAARGEALPEAPLFEPAEGEDPLALLIYTSGSTGAPKGAMYSQRLVSQLWGRTPVVPGMPNISLHYMPLSHSYGRAVLAGALSAGGTAHFTANSDLSTLFEDIALARPTFLALVPRVCEMLFQESQRGQDVAELRERVLGGRLLVAVCGSAPLSPEMRAFMEEVLGFPLLDGYGSTEALGVMRNGIIQRPPVIDYKLVDVPELGYRTTDKPYPRGELCIRSTSLISGYYKRPEITAEVFDAQGYYKTGDVMAEIAPDHLVYVDRSKNVLKLSQGEFVAVAKLEAAYGTSPYVKQIFVYGNSERSFLLAVVVPNAEVLGARDQEEAKPLIAASLQKIAKEAGLQSYEVPRDFLIETEPFTTQNGLLSEVGKLLRPKLKARYGEALEARYDEIAHGQADELRALRDGAGQRPVVETVVRAAVAISGSEGAEVGPEANFADLGGDSLSALSLANLLHDVFEVEVPVRIIIGPTASLAGIAKHIEAERAGASAPTAASVHGAGATRIRASELTLEKFLPEDLLAAAKGLPAADQVRTVLLTGANGWLGRFLALEQLERLARSGQDGGKLICLVRGKDAAAARRRIEETLGTDPALAARFAELAEGRLEVVPGDVGEPKFGLDDAAWDRLAEEVDVIVHPAALVNHVLPYHQLFGPNVVGTAEIIRLAITAKRKPVTYLSTVAVAAGVEPSSFEEDGDIRAVVPERPLGDGYANGYGNSKWAGEVLLREAHELVGLPVAVFRSDMILAHTRYTGQLNVPDQFTRLVLSLLATGIAPKSFYQQGAAGERQRAHYDGIPVDFTAEAITTLGAEPSWFDGGAGFRSFDVFNPHHDGVGLDEFVDWLIEAGHPISRIDDHKEWFARFETAVRGLPEAQRQHSLLPLLRAYSFPHPPVDGSVYPTGKFQGAVKAAQVGSDHDVPHLGKALIVKYADDLKALGLL | – | acceptance of pimelate as substrate (NADPH consumption, absorbance at 340 nm) [3]: accepted pimelate as substrate
